B1: porcine heart L-lactate dehydrogenase (enzyme)
chain: not shown
notes: L-lactate dehydrogenase from porcine heart (phLDH), tetramer; also called phLDH; PhLDH
B2: baker's yeast D-glyceraldehyde-3-phosphate dehydrogenase (enzyme)
chain: VRVAINGFGRIGRLVMRIALSRPNVEVVALNDPFITNDYAAYMFKYDSTHGRYAGEVSHDDKHIIVDGKKIATYQERDPANLPWGSSNVDIAIDSTGVFKELDTAQKHIDAGAKKVVITAPSSTAPMFVMGVNEEKYTSDLKIVSNASCTTNCLAPLAKVINDAFGIEEGLMTTVHSLTATQKTVDGPSHKDWRGGRTASGNIIPSSTGAAKAVGKVLPELQGKLTGMAFRVPTVDVSVVDLTVKLNKETTYDEIKKVVKAAAEGKLKGVLGYTEDAVVSSDFLGDSHSSIFDASAGIQLSPKFVKLVSWYDNEYGYSTRVVDLVEHVAKA
modifications: Homotetramer, apo-enzyme preparation from yeast (NADH added in the binding assays). The isozyme is taken as TDH3 because the cited PDB 3PYM is GAPDH 3. The natural preparation may contain minor …

Columns and labels:
[1] = target: B2; assay: cell-based or functional assay
[2] = target: T1, rabbit muscle D-glyceraldehyde-3-phosphate dehydrogenase (rabbit, UniProt P46406 2-333); assay: cell-based or functional assay
T1 sequence (P46406 2-333): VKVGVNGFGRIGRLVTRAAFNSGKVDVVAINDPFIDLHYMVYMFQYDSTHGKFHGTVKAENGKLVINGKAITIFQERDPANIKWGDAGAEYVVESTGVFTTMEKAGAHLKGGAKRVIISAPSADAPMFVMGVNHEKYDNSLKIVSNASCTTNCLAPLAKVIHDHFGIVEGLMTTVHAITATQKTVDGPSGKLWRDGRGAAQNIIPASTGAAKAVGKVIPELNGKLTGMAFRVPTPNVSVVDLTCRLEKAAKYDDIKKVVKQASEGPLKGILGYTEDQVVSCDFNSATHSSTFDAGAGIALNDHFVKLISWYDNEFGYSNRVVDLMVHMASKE

[3] = target: the molecule itself; assay: AUC; sedimentation velocity of each enzyme alone at 6 μM; scans at 280 nm, 7 hours at 40,000 x g; SEDFIT with s and Mr as free fit parameters; Mr compared with the mass calculated from the sequence
[4] = target: B2; assay: cell-based or functional assay; remark: listed apart in the source
[5] = target: T1, rabbit muscle …; assay: cell-based or functional assay; remark: listed apart in the source
[6] = target: B1; assay: AUC; sedimentation velocity of a mixture of phLDH and byGAPDH, each 6 μM; 50 mM Tris/HCl, pH = 7.2, 1 mM EDTA, 0.5 mM DTT; scans at 280 nm, 7 hours at 40,000 x g; fit with SEDFIT to a one-component model and compared with a Claverie simulation of 10% association; conditions: both partners purified

B1
ratio between measured phLDH activity and the calculated free-diffusion activity; 40 μM NADH, byGAPDH 240 to 480 μM of NADH binding sites; ratio rises from 3.5 to 6.1 fold [1]: 6.1 fold
ratio between measured phLDH activity and the calculated free-diffusion activity; byGAPDH fixed at 480 μM NADH binding sites, NADH decreased from 40 to 10 μM; ratio rises from 5.2 to 6.6 fold [1]: 6.6 fold
ratio between measured phLDH activity and the calculated free-diffusion activity; 40 μM NADH, rmGAPDH 100 to 240 μM of NADH binding sites; ratio rises from 1.3 to 2.0 fold [2]: 2 fold
ratio between measured phLDH activity and the calculated free-diffusion activity; rmGAPDH fixed at 200 μM NADH binding sites, NADH decreased from 40 to 10 μM; ratio rises from 1.7 to 2.28 fold [2]: 2.28 fold
binding result [3]: binds
apparent KM of phLDH with byGAPDH-NADH complex as substrate (630 μM pyruvate) [4]: 116 µM
apparent KM of phLDH with rmGAPDH-NADH complex as substrate (630 μM pyruvate) [5]: 59.6 µM

B2
Kd [6]: ≥ 48.6 µM

Reference: paper PMC7320145, “Substrate Channeling via a Transient Protein-Protein Complex: The case of D-Glyceraldehyde-3-Phosphate Dehydrogenase and L-Lactate Dehydrogenase” (Scientific Reports, 2020)
